Columns and labels:
[1] = target: T1, prostate-specific membrane antigen (PSMA) (human, UniProt Q04609 1-750); test: FACS binding; LNCaP cells
[2] = target: T1, prostate-specific membrane antigen …; test: FACS binding; C4-2 cells; apparent EC50

T1 sequence (Q04609 whole entry): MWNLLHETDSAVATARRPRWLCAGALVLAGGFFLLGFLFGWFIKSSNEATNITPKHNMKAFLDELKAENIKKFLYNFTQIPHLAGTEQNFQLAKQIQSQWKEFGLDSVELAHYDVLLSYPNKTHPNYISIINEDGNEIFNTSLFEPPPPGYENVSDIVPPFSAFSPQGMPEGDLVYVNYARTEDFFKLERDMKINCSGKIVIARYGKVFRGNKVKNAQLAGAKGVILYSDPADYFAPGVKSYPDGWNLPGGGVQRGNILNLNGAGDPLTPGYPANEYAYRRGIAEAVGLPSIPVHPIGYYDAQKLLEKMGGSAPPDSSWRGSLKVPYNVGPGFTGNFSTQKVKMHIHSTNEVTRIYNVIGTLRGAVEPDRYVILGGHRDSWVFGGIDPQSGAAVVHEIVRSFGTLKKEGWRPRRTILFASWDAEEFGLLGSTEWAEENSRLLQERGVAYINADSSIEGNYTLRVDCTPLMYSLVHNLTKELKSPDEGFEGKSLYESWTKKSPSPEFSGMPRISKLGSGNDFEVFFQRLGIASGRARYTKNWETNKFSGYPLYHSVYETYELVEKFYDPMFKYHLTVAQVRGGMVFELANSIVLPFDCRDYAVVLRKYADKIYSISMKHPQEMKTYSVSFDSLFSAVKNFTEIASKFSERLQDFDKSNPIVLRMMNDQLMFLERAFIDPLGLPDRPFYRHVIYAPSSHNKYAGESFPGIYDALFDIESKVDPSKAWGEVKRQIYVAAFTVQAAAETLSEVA

Binder	EC50 [1]	EC50 [2]
TSC085 chimeric SMIP (murine 107-1A4 VL-VH scFv-human Fc) (Fc fusion) DVQITQSPSYLAASPGETITINCRASKSISKYLAWYQEKPGKANKLLIHSGSTLQSGIPSRFSGSGSGTDFTLTISSLEPEDFAMYYCQQHIEYPWTFGGGTKLEIKRAGGGGSGGGGSSGGGGSEIQLQQSGPELVKPGASVKMSCKASGYTFTDYYMHWVKQNNGESLEWIGYFNPYNDYTRYNQNFNGKATLTVDKSSSTAYMQLNSLTSEDSAFYYCARSDGYYDAMDYWGQGTSVTVSSSEPKSSDKTHTCPPCPAPEAAGAPSVFLFPPKPKDTLMISRTPEVTCVVVDVSHEDPEVKFNWYVDGVEVHNAKTKPREEQYNSTYRVVSVLTVLHQDWLNGKAYACAVSNKALPAPIEKTISKAKGQPREPQVYTLPPSRDELTKNQVSLTCLVKGFYPSDIAVEWESNGQPENNYKTTPPVLDSDGSFFLYSKLTVDKSRWQQGNVFSCSVMHEALHNHYTQKSLSLSPGK	4.9 nM	–
107-1A4 murine monoclonal antibody (antibody, V domains shown) VH: EIQLQQSGPELVKPGASVKMSCKASGYTFTDYYMHWVKQNNGESLEWIGYFNPYNDYTRYNQNFNGKATLTVDKSSSTAYMQLNSLTSEDSAFYYCARSDGYYDAMDYWGQGTSVTVSS VL: DVQITQSPSYLAASPGETITINCRASKSISKYLAWYQEKPGKANKLLIHSGSTLQSGIPSRFSGSGSGTDFTLTISSLEPEDFAMYYCQQHIEYPWTFGGGTKLEIKR	5.4 nM	–
TSC092 chimeric SMIP (murine 107-1A4 VH-VL scFv-human Fc) (Fc fusion) EIQLQQSGPELVKPGASVKMSCKASGYTFTDYYMHWVKQNNGESLEWIGYFNPYNDYTRYNQNFNGKATLTVDKSSSTAYMQLNSLTSEDSAFYYCARSDGYYDAMDYWGQGTSVTVSSGGGGSGGGGSSGGGGSDVQITQSPSYLAASPGETITINCRASKSISKYLAWYQEKPGKANKLLIHSGSTLQSGIPSRFSGSGSGTDFTLTISSLEPEDFAMYYCQQHIEYPWTFGGGTKLEIKRASSEPKSSDKTHTCPPCPAPEAAGAPSVFLFPPKPKDTLMISRTPEVTCVVVDVSHEDPEVKFNWYVDGVEVHNAKTKPREEQYNSTYRVVSVLTVLHQDWLNGKAYACAVSNKALPAPIEKTISKAKGQPREPQVYTLPPSRDELTKNQVSLTCLVKGFYPSDIAVEWESNGQPENNYKTTPPVLDSDGSFFLYSKLTVDKSRWQQGNVFSCSVMHEALHNHYTQKSLSLSPGK	4 nM	–

More lines, now with the values ahead:

EC50 [1]	EC50 [2]	Binder
–	3.2 nM	TSC188 humanized SMIP (107-1A4 VL-VH#1 scFv-Fc) (Fc fusion) DIQMTQSPSAMSASVGDRVTITCRASKSISKYLAWFQQKPGKVPKLRIHSGSTLQSGVPSRFSGSGSGTEFTLTISSLQPEDFATYYCQQHIEYPWTFGQGTKVEIKRGGGGSGGGGSGGGGSEVQLVQSGAEVKKPGATVKISCKASGYTFTDYYMHWVQQAPGKGLEWMGYFNPYNDYTRYAEKFQGRVTITADTSTDTAYMELSSLRSEDTAVYYCARSDGYYDAMDYWGQGTTVTVSSSEPKSSDKTHTCPPCPAPEAAGAPSVFLFPPKPKDTLMISRTPEVTCVVVDVSHEDPEVKFNWYVDGVEVHNAKTKPREEQYNSTYRVVSVLTVLHQDWLNGKAYACAVSNKALPAPIEKTISKAKGQPREPQVYTLPPSRDELTKNQVSLTCLVKGFYPSDIAVEWESNGQPENNYKTTPPVLDSDGSFFLYSKLTVDKSRWQQGNVFSCSVMHEALHNHYTQKSLSLSPGK
–	2.1 nM	TSC189 humanized SMIP (107-1A4 VL-VH#2 scFv-Fc) (Fc fusion) DIQMTQSPSAMSASVGDRVTITCRASKSISKYLAWFQQKPGKVPKLRIHSGSTLQSGVPSRFSGSGSGTEFTLTISSLQPEDFATYYCQQHIEYPWTFGQGTKVEIKRGGGGSGGGGSGGGGSQVQLVQSGAEVKKPGASVKVSCKASGYTFTDYYMHWVRQAPGQGLEWMGYFNPYNDYTRYAQKFQGRVTMTRDTSISTAYMELSSLRSDDTAVYYCARSDGYYDAMDYWGQGTTVTVSSSEPKSSDKTHTCPPCPAPEAAGAPSVFLFPPKPKDTLMISRTPEVTCVVVDVSHEDPEVKFNWYVDGVEVHNAKTKPREEQYNSTYRVVSVLTVLHQDWLNGKAYACAVSNKALPAPIEKTISKAKGQPREPQVYTLPPSRDELTKNQVSLTCLVKGFYPSDIAVEWESNGQPENNYKTTPPVLDSDGSFFLYSKLTVDKSRWQQGNVFSCSVMHEALHNHYTQKSLSLSPGK
